Here are results for 4 substances from publication PMC11154709, “4S-fluorination of ProB29 in insulin lispro slows fibril formation” (The Journal of Biological Chemistry, 2024).

Usually Kd stands for the free concentration of one partner at which half of the binding sites on the other are occupied at equilibrium, for simple one-to-one binding.

Series [1] in a line: ANS fluorescence (conformational disorder). The class given is physicochemical. Conditions: 1 μM lispro variant, 5 μM ANS, 100 mM phosphate, pH 8.0, ambient temperature, 350 nm excitation; mean ± SD, three separate HPLC fractions. The method, then: Figure 4 Fibrillation of lispro variants.A, lispro variants (60 μM in 100 mM phosphate buffer, pH 8.0) were incubated at 37 °C with vigorous shaking; fibril formation was monitored by ThT fluorescence. Fibrillation runs were performed on two separate HPLC fractions, each in triplicate or quadruplicate, on two separate days. B–E, TEM images of lispro (B), KP-4R-F (C), KP-4S-F (D), and KP-44-diF (E) aggregates. F, ANS emission spectra of lispro variants (1 μM lispro variant labeled with 5 μM ANS in 100 mM phosphate buffer, pH 8.0). The data presented here indicate the mean ± SD for each variant from measurements of three separate HPLC fractions. 44-diF, 4,4-difluoroproline; 4R-F, 4R-fluoroproline; 4S-F, 4S-fluoroproline; ThT, thioflavin T. […]
Lispro variants (1 μM) were mixed with 5 μM ANS in 100 mM phosphate buffer, pH 8.0. Fluorescence emission spectra were measured at ambient temperature (350 nm excitation). Measurements for each lispro were performed in triplicate from three separate HPLC fractions. […]
Transmission electron microscopy: […]
Lispro variants (1 µM) were mixed with 5 µM ANS in 100 mM phosphate buffer, pH 8.0.
Fluorescence emission spectra were measured in 1 cm quartz cuvettes at ambient temperature using a PTI QuantaMaster fluorescence spectrofluorometer. A 2 nm s -1 scan rate and 350 nm excitation wavelength were used. Measurements for each variant were performed in triplicate from three separate HPLC fractions.

The nature of series [2]: Analytical ultracentrifugation, velocity sedimentation: hydrodynamic parameters. The class given is physicochemical. Particulars: 140-206 µM in 100 mM phosphate buffer, pH 8.0, 60,000 RPM, 20 °C, brackets 95% confidence interval. As to the method: Lispro variants (140–206 μM in 100 mM phosphate buffer, pH 8.0) were analyzed by velocity sedimentation at the Canadian Center for Hydrodynamics at the University of Lethbridge using absorbance optics. All samples were measured at 60,000 RPM and 20 °C. Data were analyzed with UltraScan III version 4.0 release 6606 ([38]). Velocity data were initially fitted with the two-dimensional spectrum analysis ([39]) to determine meniscus position and time- and radially-invariant noise, and to generate molecular weight distributions. Two-dimensional spectrum analysis results were refined using the genetic algorithm approach ([40]). Sedimentation and diffusion coefficients derived from the genetic algorithm analysis were transformed to molar mass distributions, assuming a partial specific volume of 0.7248 ml/g for all lispro variants. The enhanced van Holde-Weischet analysis ([41]) was used to determine diffusion-corrected sedimentation coefficient distributions. For the Kd analysis, AUC data were fitted with a discrete model genetic algorithm approach ([29]), assuming the known molar mass of the monomer and floating the Kd, koff, total concentration, partial specific volumes, and frictional ratios as reported in Table S3. […]
Analytical ultracentrifugation:
Lispro variants were formulated at 140 -206 µM in 100 mM phosphate buffer, pH 8.0. Velocity sedimentation experiments were performed at the Canadian Center for Hydrodynamics at the University of Lethbridge using absorbance optics. High concentrations sample s were measured at 237 nm, intermediate concentration samples at 232 nm, and low concentration samples at 225 nm. All samples were measured at 60,000 RPM and 20°C in standard Beckman Coulter cell […]
housings fitted with 0.3 cm epon-charcoal centerpieces for the high concentration samples, and 1.2 cm epon-charcoal centerpieces for the intermediate and low concentration samples. All cells were fitted with sapphire windows. Data were analyzed with UltraScan III version 4.0 release 6606. (38) Velocity data were initially fitted with the two -dimensional spectrum analysis (39) to determine meniscus position and time - and radially-invariant noise, and to generate molecular weight distributions. 2DSA results were refined using the genetic algorithm (GA) approach. (40) Sedimentation and diffusion coefficients derived from the GA analysis were transformed to molar mass distributions (see Figure S2), assuming a partial specific volume of 0.7248 ml/g for all lispro variants. The enhanced van Holde -Weischet analysis (41) was used to determine diffusion - corrected sedimentation coefficient distributions. For the K d analysis, AUC data were fitted with a discrete model genetic algorithm (DMGA) approach,(29) assuming the known molar mass of the monomer, and floating the K d, koff, total concentration, partial specific volumes, and frictional […]
Lispro samples (60 µM in 100 mM sodium phosphate, pH 8.0) were centrifuged at 22,000 g for 1 h at 4°C, before 1 µM thioflavin T (ThT) was added. Each lispro (200 µL) was added to a 96 -well, black, clear bottom plate (Greiner Bio -One) and sealed. Samples were shaken continuously at 960 rpm on a Varioskan multimode plate reader at 37°C, and fluorescence readings were recorded every 15 min (444 nm excitation, 485 nm em ission). Fibrillation runs were performed on at least two separate HPLC fractions, each in triplicate or quadruplicate, and on two different days. The growth phase of each fibrillation replicate was fit to a linear function; f ibrillation lag times were reported as the x-intercept of this fit. Fibril samples were stored at 4°C until analysis by transmission electron microscopy (TEM).
Transmission electron microscopy:
Lispro fibrils were briefly centrifuged (5 kg, 1 min), then washed twice and resuspended in ddH 2O.
Fibrils were stained with 2% uranyl acetate on a 300 -mesh formvar/carbon coated copper grid (Electron Microscopy Sciences) and imaged on a Tecnai T12 LaB6 […] transmission electron […]

Series [3] has as its target reversible monomer-dimer equilibrium. Conditions: read-out: Kd (monomer-dimer), previously reported; cited from earlier work. From the text:
The secondary structure of each insulin lispro variant was probed by circular dichroism spectroscopy. […] All lispro samples were further analyzed by analytical ultracentrifuga ...

The conditions of series [4]: cited from earlier work. The text has this:
Removal of the constrained pyrrolidine ring of proline at position B28 grants additional conformational degrees of freedom and removes hydrophobic packing interactions at the dimer interface. […] However, the standard mutagenesis approach employed in the discovery of insulin lispro ([7]) (and other FDA-app ...

For the substance “insulin lispro: fast-acting insulin with inversion of the residues ProB28 and LysB29; Humalog, Eli Lilly [reference compound]”, the ANS emission maximum in series [1] is 466 ± 2 nm. In addition, in series [2], the “Partial specific volume PSV” value was 0.72 [0.70, 0.74] ml g-1; the “Dimer diffusion coefficient D” value was 1.10 [0.99, 1.21] µm2/s; the Dimer frictional ratio is 1.31 [1.20, 1.43]; the “Dimer sedimentation coefficient s” value was 1.48 [1.25, 1.72] S. Moreover, in series [2], the “Monomer diffusion coefficient D” value was 1.26 [1.16, 1.35] µm2/s; the Monomer frictional ratio was 1.44 [1.32, 1.57]; the “Monomer sedimentation coefficient s” value is 0.85 [0.81, 0.88] S. Also, the Kd in series [3] was 1100 µM. In addition, in series [4], the “absorption” value is “accelerate absorption”.
For “KP-4S-F: insulin lispro with ProB29 replaced by 4S-fluoroproline”, the ANS emission maximum in series [1] is listed as 463 ± 6 nm. Also, in series [2], the “Partial specific volume PSV” value is 0.68 [0.67, 0.69] ml g-1; the “Dimer diffusion coefficient D” value was 1.20 [1.05, 1.35] µm2/s; the Dimer frictional ratio was 1.23 [1.08, 1.37]; the “Dimer sedimentation coefficient s” value was 1.87 [1.63, 2.10] S. Besides, in series [2], the “Monomer diffusion coefficient D” value is 1.32 [1.29, 1.36] µm2/s; the Monomer frictional ratio was 1.40 [1.35, 1.44]; the “Monomer sedimentation coefficient s” value is 1.03 [1.00, 1.05] S.
“KP-4R-F: insulin lispro with ProB29 replaced by 4R-fluoroproline” displayed an ANS emission maximum in series [1] of 464 ± 4 nm. Besides, in series [2], the “Partial specific volume PSV” value was 0.69 [0.69, 0.70] ml g-1; the “Dimer diffusion coefficient D” value is 1.31 [1.08, 1.55] µm2/s; the Dimer frictional ratio is 1.12 [0.90, 1.35]; the “Dimer sedimentation coefficient s” value is 1.99 [1.58, 2.39] S. Also, in series [2], the “Monomer diffusion coefficient D” value was 1.20 [1.14, 1.25] µm2/s; the Monomer frictional ratio was 1.54 [1.47, 1.61]; the “Monomer sedimentation coefficient s” value was 0.90 [0.88, 0.93] S.
Substance “KP-44-diF: insulin lispro with ProB29 replaced by 4,4-difluoroproline” gave an ANS emission maximum in series [1] of 462 ± 5 nm. Besides, in series [2], the “Partial specific volume PSV” value was 0.67 [0.64, 0.70] ml g-1; the “Dimer diffusion coefficient D” value was 0.99 [0.84, 1.14] µm2/s; the Dimer frictional ratio was 1.50 [1.40, 1.60]; the “Dimer sedimentation coefficient s” value is 1.59 [1.30, 1.88] S. Besides, in series [2], the “Monomer diffusion coefficient D” value is 1.24 [1.16, 1.32] µm2/s; the Monomer frictional ratio is 1.50 [1.40, 1.60]; the “Monomer sedimentation coefficient s” value was 1.00 [0.95, 1.04] S.
